Experiment [1] concerns the target T1, Human Nectin-4 (residues Gly32-Ser349; NCBI RefSeq: NP_112178.2) with C-terminal FLAG tag, biotinylated (human, UniProt Q96NY8 32-349, randomly biotinylated with EZ-Link Sulfo-NHS-LC-LC-Biotin).
T1 construct: range 32-349; also called human Necin-4 protein; biotinylated Nectin-4; not shown: C-terminal FLAG tag
T1 sequence (looked up): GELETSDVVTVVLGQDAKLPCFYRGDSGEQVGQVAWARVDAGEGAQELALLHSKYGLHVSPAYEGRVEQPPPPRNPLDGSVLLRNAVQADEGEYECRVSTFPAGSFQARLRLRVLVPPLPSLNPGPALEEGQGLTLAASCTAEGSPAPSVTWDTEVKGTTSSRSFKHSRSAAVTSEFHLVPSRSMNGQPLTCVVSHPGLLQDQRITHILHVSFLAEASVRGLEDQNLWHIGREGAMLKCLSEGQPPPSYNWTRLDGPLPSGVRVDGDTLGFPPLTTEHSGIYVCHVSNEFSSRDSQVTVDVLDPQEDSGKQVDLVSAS
The experiment can be described thus: Biacore SPR, biotinylated Nectin-4 captured on streptavidin chip, peptide as analyte; n = 1. On the technique in general: In SPR one partner is held on a chip, and binding of the other changes the refractive index at the surface.

The target in experiment [2] is T2, human Nectin-4 (protein used in the fluorescence polarisation direct and competition binding assays) (human, UniProt Q96NY8 32-349).
T2 construct: It may be the Gly32-Ser349 FLAG construct described for SPR
T2 sequence (looked up): T1 sequence (looked up)
The experiment in a line: fluorescence polarisation competition; competitor: fluorescent tracer SEQ ID NO: 2; 2 experiments. The method, then: (§1) Affinity of the peptides of the invention for human Nectin-4 (Ki) was determined using a fluorescence polarisation assay, in accordance with the methods disclosed in WO 2016/067035. Peptides of the invention with a fluorescent tag (either fluorescein, SIGMA or Alexa Fluor488™, Fisher Scientific) were diluted to 2.5 nM in PBS with 0.01% tween 20 or 50 mM HEPES with 100 mM NaCl and 0.01% tween pH 7.4 (both referred to as assay buffer). […] Measurements were conducted on a BMG PHERAstar FS equipped with an “FP 485 520 520” optic module which excites at 485 nm and detects parallel and perpendicular emission at 520 nm. The PHERAstar FS was set at 25° C. with 200 flashes per well and a positioning delay of 0.1 second, with each well measured at 5 to 10 minute intervals for 60 minutes. […] Data was analysed using Systat Sigmaplot version 12.0. mP values were fit to a user defined quadratic equation to generate a Kd value: f=ymin+ (ymax−ymin)/Lig*((x+Lig+Kd)/2-sqrt((((x+Lig+Kd)/2)\hat{ }2)−(Lig*x))).
(§2) Peptides were diluted to an appropriate concentration in assay buffer as described in the direct binding assay with a maximum of 5% DMSO, then serially diluted 1 in 2. […] Measurements were conducted as for the direct binding assay, however the gain was determined prior to the first measurement. […]

Experiment [3] addresses T2, human Nectin-4 (protein used in the …). The experiment in a line: fluorescence polarisation direct binding assay. Here is the method: as §1
For experiment [4] the target is unchanged. The experiment in a line: fluorescence polarisation competition; competitor: fluorescent tracer SEQ ID NO: 2; 6 experiments. Here is the method:
as §1, §2

Experiment [5] deals with T1, Human Nectin-4 (residues Gly32-Ser349; …). The experiment can be described thus: Biacore SPR, biotinylated Nectin-4 captured on streptavidin chip, peptide as analyte; n = 4.
The target of experiment [6] is T3, Nectin-4 on MDA-MB-468 cells (UniProt Q96NY8 32-510, limits assumed).
T3 construct: whole, on cells; the cell line is a human breast cancer line; also called PVRL-4
T3 sequence (looked up): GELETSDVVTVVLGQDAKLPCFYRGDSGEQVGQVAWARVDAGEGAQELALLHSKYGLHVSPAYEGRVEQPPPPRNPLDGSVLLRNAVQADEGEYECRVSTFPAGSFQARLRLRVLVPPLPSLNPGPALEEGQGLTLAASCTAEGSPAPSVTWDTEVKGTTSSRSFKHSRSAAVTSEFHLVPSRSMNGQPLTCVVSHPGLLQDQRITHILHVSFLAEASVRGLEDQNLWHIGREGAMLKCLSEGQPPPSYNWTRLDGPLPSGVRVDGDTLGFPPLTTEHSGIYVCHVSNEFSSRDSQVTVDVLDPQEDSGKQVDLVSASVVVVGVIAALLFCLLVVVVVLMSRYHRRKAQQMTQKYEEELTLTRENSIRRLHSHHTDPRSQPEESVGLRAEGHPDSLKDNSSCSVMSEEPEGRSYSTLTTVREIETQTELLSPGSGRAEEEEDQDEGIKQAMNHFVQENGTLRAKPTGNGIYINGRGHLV
The experiment in a line: HCS cell binding assay on MDA-MB-468 cells, detection with fluorescent anti-MMAE antibody. The method, then: (§3) HCS assay was used in Nectin-4 BDC binding study. Cells were incubated with test agent and then washed. Detection was by a fluorescent antibody to MMAE.

The target in experiment [7] is T1, Human Nectin-4 (residues Gly32-Ser349; …). The experiment in a line: Biacore SPR, biotinylated Nectin-4 captured on streptavidin chip, conjugate as analyte.
Experiment [8] addresses T3, Nectin-4 on MDA-MB-468 cells. The experiment can be described thus: HCS cell-binding assay on MDA-MB-468 cells at 4°C: cells incubated with the test agent, washed, detected with a fluorescent antibody to MMAE; readout membrane mean intensity CH2 (RFU) [A]. The method, then: as §3
Experiment [9] has the same target. The experiment can be described thus: historical Kd as printed in Table 44; assay not described.

*1 amine or outer side, *2 acyl side, *3 side chain or, on linkers, in order; H or OH if unused. Bridges are numbered along the chain shown (N, C = ends). Where no end group is shown, it is not given here. [ ]: non-standard residue; d: D form. TATA = O=C(CC[*:1])N1CN(C(=O)CC[*:2])CN(C(=O)CC[*:3])C1; fluorescein = fluorescein (Fl) label on lysine; 1Nal = N[C@@H](Cc1cccc2ccccc12)C(=O)O; PABC = O=C(OCc1ccc(N[*:1])cc1)[*:2]; Glutaryl = O=C(CCCC(=O)[*:2])[*:1]; Hyp = O=C(O)[C@@H]1C[C@@H](O)CN1; hArg = N=C(N)NCCCC[C@H](N)C(=O)O; Cit = NC(=O)NCCC[C@H](N)C(=O)O; βAla = NCCC(=O)O; Sar = CNCC(=O)O

B1: BCY8116: (SEQ ID NO: 1), cyclised with TATA (peptide)
peptide: CPADCMRDWSTPPWC
modifications: core as printed Ci-P1-[1Nal]2-[dD]3-Cii-M4-[HArg]5-D6-W7-S8-T9-P10-[HyP]11-W12-Ciii (1Nal = 1-naphthylalanine, dD = D-Asp, HArg = homoarginine, HyP = hydroxyproline); Ci, Cii and Ciii covalently bound to the TATA scaffold
notes: Bicyclic peptide
By Kd is commonly meant a measure of binding affinity in units of concentration. B1 displayed a Kd in [1] of 0.372 nM.

B2: BCY8122: Ac-[B-Ala][Sar5]-(SEQ ID NO: 1), cyclised with TATA (peptide)
peptide: Ac-[βAla][Sar][Sar][Sar][Sar][Sar]CP[1Nal][dD]CM[hArg]DWSTP[Hyp]WC
modifications: linker 7-11-21 via TATA
notes: Bicyclic peptide
The Ki is a dissociation constant, usually derived from enzyme kinetics or from competition with a known ligand. Read a high Ki as weaker binding. As to B2, in [1], the equilibrium dissociation constant (Kd) turned out to be 0.89 nM. Besides, the inhibition constant Ki in [2] worked out at 3 nM.

B3: ACPFGCHTDWSWPIWCA-Sar6-K(FI) (SEQ ID NO: 2) (peptide)
peptide: ACPFGCHTDWSWPIWCA[Sar][Sar][Sar][Sar][Sar][Sar]K(fluorescein)
modifications: linker 2-6-16 via TATA
notes: also called fluorescent peptide; tracer
The molecule B3 returned a dissociation constant (Kd) in [3] of 5 nM.

B4: BCY8126: Ac-(SEQ ID NO: 1), cyclised with TATA (peptide)
peptide: CPADCMRDWSTPPWC
modifications: N-terminal acetyl; core as printed Ci-P1-[1Nal]2-[dD]3-Cii-M4-[HArg]5-D6-W7-S8-T9-P10-[HyP]11-W12-Ciii (1Nal = 1-naphthylalanine, dD = D-Asp, HArg = homoarginine, HyP = hydroxyproline); Ci, Cii and Ciii covalently bound to the TATA scaffold
notes: Bicyclic peptide
On to B4, for which, in experiment [4], affinity was put at a Ki of 2.7 nM. Binding in experiment [5] was put at a Kd of 1.07 nM.

B5: BCY8245: MMAE-PABC-Cit-Val-Glutaryl-BCY8234 (BCY8234 = [B-Ala][Sar10]-(SEQ ID NO: 1), cyclised with TATA) (peptide)
peptide: {MMAE-PABC-Cit-Val-Glutaryl}-[βAla][Sar][Sar][Sar][Sar][Sar][Sar][Sar][Sar][Sar][Sar]CP[1Nal][dD]CM[hArg]DWSTP[Hyp]WC
modifications: linker 12-16-26 via TATA
notes: Bicyclic peptide drug conjugate (BDC) with an MMAE to drug ratio of 1; also called BT8009
As usually defined, the EC50 (read off the curve) is the concentration at which the effect is half-maximal. A lower EC50 (read off the curve) goes with higher potency in that assay. Take B5: the dissociation constant (Kd) in [6] worked out at 3.52 nM; in experiment [7], 5.12 nM; in experiment [9], 5.18 nM. Moreover, the concentration giving a half-maximal response (EC50 (read off the curve)) in [8] was approximately 3 nM.

These data come from patent US20240400616A1 (Bicycle, published 2024).
